We go through 2 substances from article PMC11301080.

For the experiment, the target named is recombinant HIV-1 gp120 ZM109 (HIV-1). The experiment in a line: BLI. On the technique in general: In BLI a coated tip is dipped into the sample, and binding shifts an interference pattern.

In the case of “Streptococcal Siglec-like lectin SLBR-N, GST-tagged (domain or fragment)”, the Kd turned out to be 40.3 nM.
Take “recombinant FimH protein, lectin domain only (from UniProt P08191 22-179) (domain or fragment)”: the Kd came to 360 nM.

One may read the Kd as the equilibrium constant for the complex coming apart.
